Measured values: US20180119150A1

Target: FLT3 (human) (UniProt P36888)
Experiment: cell-based or functional assay

UniProt P36888, sequence (P36888 27-993): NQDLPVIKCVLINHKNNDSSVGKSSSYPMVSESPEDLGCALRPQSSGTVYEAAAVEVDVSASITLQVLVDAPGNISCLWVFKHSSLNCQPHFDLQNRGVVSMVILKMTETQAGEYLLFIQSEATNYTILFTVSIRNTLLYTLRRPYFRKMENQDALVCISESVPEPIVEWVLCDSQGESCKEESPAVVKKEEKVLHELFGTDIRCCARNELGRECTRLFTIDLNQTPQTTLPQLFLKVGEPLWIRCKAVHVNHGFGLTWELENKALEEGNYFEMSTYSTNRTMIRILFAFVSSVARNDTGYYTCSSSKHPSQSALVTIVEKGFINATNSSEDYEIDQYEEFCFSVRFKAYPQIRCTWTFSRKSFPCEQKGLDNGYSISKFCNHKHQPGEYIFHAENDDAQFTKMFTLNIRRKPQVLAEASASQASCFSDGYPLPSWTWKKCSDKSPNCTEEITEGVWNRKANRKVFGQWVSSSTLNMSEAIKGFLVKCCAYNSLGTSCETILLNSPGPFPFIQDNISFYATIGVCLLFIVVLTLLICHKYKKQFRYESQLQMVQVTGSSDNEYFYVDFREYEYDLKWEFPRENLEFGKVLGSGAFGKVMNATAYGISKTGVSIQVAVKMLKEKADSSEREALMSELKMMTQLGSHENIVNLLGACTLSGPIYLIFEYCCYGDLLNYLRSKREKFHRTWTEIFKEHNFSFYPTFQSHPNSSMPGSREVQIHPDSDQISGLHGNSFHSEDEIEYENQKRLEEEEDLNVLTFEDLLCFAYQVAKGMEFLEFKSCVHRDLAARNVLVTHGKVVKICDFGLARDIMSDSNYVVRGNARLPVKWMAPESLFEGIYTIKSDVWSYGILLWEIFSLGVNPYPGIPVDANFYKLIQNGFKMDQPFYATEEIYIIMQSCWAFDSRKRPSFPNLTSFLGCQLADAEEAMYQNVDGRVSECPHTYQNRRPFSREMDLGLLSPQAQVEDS

FLT3L-conjugated Generation 7 (G7) PAMAM (G7-FLT3L) dendrimers (from UniProt P49771 27-181) (ligand)
one-hour uptake ratio: 23.6%

G7-H2B control nanoparticles
one-hour uptake ratio: 5.9%
